The target in data set [1] is TrAP (Trx-His fusion) (Cotton leaf curl Kokhran virus, UniProt O72711 1-134). In words: EMSA. To be noted: protein: recombinant; tags: N-terminal Trx-His (pET32a); label: 5'-32P. A general note: A gel shift assay detects complexes by their altered migration in electrophoresis.
Data set [2] deals with V2 (Trx-His fusion) (Cotton leaf curl Kokhran virus, UniProt Q6JIB8 1-118). In words: EMSA. The settings on record: protein: recombinant; tags: N-terminal Trx-His (pET32a); label: 5'-32P.

Consider AGAGUGCCAUGCCCGAAGGUU (ssRNA) [21 nt ssRNA], for which the binding result in data set [1] is recorded as “binds”.

Take AGAGUGCCAUGCCCGAAGGUUAUU (ssRNA) [24 nt ssRNA]: in data set [1], the binding result was “binds”.

B1: 69 nt ssDNA (SalI-XbaI-HA-Tag oligo, by length) (ssDNA)
DNA: GCGTCGACGTCTTGCTCTAGAGATGTATCCATATGATGTTCCGGATTACGCGGAACGAGCTATACAAGG
For B1, the binding result in data set [2] and in data set [1] was “binds” in each case.

On to AGAGTGCCATGCCCGAAGGTT (ssDNA) [21 nt ssDNA], for which, in data set [1], the binding result is “binds”.

The record behind these values is article PMC4690014, “Functional Analysis of Cotton Leaf Curl Kokhran Virus/Cotton Leaf Curl Multan Betasatellite RNA Silencing Suppressors”.
